Source: patent US20050064556A1

Target: factor Xa
Test: cell-based or functional assay

Tissue Factor Pathway Inhibitor (TFPI), yeast-produced, authentic mature 276 amino acid polypeptide (from UniProt P10646 29-304)
factor Xa amidolytic assay, 50% inhibitory concentration: 20 ng/mL
